# From article doi:10.1101/2020.12.18.423546 (bioRxiv, 2020)
# Key:
# cross-linking = target: the molecule itself; assay: cross-linking
# SEC-MALS = target: the molecule itself; assay: SEC-MALS
protein,measurement,setting,value
Bax (α2-α5) (human Bax residues D53 to K128 with C62S and C126S mutations) (domain or fragment) DASTKKLSESLKRIGDELDSNMELQRMIAAVDTDSPREVFFRVAADMFSDGNFNWGRVVALFYFASKLVLKALSTK,stoichiometry N,cross-linking,2
same,stoichiometry N,SEC-MALS,4
